The series can be described thus: total protein half-life in vivo (active degradation + dilution); higher = more stable protein.
Setting [1] is: E. coli NCM3722 delta-clpP delta-lon delta-hslV, growth: N-lim chemostat, doubling time 6 h.
Setting [2] is: E. coli NCM3722 delta-clpP, growth: N-lim chemostat, doubling time 6 h.
Where [3] appears, read: E. coli NCM3722 delta-hslV, growth: N-lim chemostat, doubling time 6 h.
The mark [4] stands for this setting: E. coli NCM3722 delta-lon, growth: N-lim chemostat, doubling time 6 h.
Where [5] appears, read: E. coli NCM3722 delta-smpB, growth: N-lim chemostat, doubling time 6 h.
The mark [6] stands for this setting: wild type E. coli NCM3722, growth: C-lim chemostat, doubling time 6 h.
The mark [7] stands for this setting: wild type E. coli NCM3722, growth: C-lim chemostat, doubling time 12 h.
[8] abbreviates: wild type E. coli NCM3722, growth: N-lim chemostat, doubling time 6 h.
Where [9] appears, read: wild type E. coli NCM3722, growth: N-lim chemostat, doubling time 12 h.
Setting [10] is: wild type E. coli NCM3722, growth: P-lim chemostat, doubling time 6 h.
[11] abbreviates: wild type E. coli NCM3722, growth: P-lim chemostat, doubling time 12 h.
The mark [12] stands for this setting: wild type E. coli NCM3722, growth: C-lim chemostat, doubling time 3 h.

± gives the standard deviation of the averaged measurements.

“MNYRIIPVTAFSQNCSLIWCEQTRLAALVDPGGDAEKIKQEVDDSGLTLMQILLTHGHLDHVGAAAELAQHYGVPVFGPEKEDEFWLQGLPAQSRMFGLEECQPLTPDRWLNEGDTISIGNVTLQVLHCPGHTPGHVVFFDDRAKLLISGDVIFKGGVGRSDFPRGDHNQLISSIKDKLLPLGDDVIFIPGHGPLSTLGYERLHNPFLQDEMPVW”: the “total protein half-life in vivo” value turned out to be 4.63 ± 0.21 h under setting [1]; 5.7 ± 1.5 h under setting [2]; 3.09 ± 0.2 h under setting [3]; 4.23 ± 0.31 h under setting [4]; 3.17 ± 0.34 h under setting [5]; 6.22 ± 1.2 h under setting [6]. Moreover, the “total protein half-life in vivo” value worked out at 9.88 ± 0.89 h under setting [7]; 3.73 ± 0.55 h under setting [8]; 4.36 ± 0.79 h under setting [9]; 5.05 ± 0.39 h under setting [10]; 9.46 ± 1.1 h under setting [11].

Consider “MKIGTVAGTNDSTTTIATNDMVQEHVTNFTKELFGYIANGIGDDISSIARTMLGEVVEKIDDWQIERFQQSIQDDKISFTIQTDHSEKYSMLSGMRAHILRRNNNYQFIVTINSKNYGCSLDNTDINWCSIVYLLNNMTVNDNANDVAVTESYKPIWNWKISQYNVSDIKFETMIKPQFADRIYFSNCLPVDPTSTRPTYFGDTDGSVGAVLFALFATGHLGIMAEGENFLSQLLNIEDEVLNVLLRENFNEQLNTNVNTIISILNRRDIILESLQPYLVINKDAVTPCTFLGDQTGDRFSNICGDQFIIDLLKRIMSINENVHVLAGNHETNCNGNYMQNFTRMKPLDEDTYSGIKDYPVCFYDPKYKIMANHHGITFDDQRKRYIIGPITVSIDEMTNALDPVELAAIINKKHHAIINGKKFKTSRAISCRSFNRYFSVSTDYRPKLEALLACSQMLGINQVVAHNGNGGRERIGETGTVLGLNARDSKHAGRMFSMHNCQINPGAGPEITTPWKSYQHEKNRNGLMPLIRRRTMLQL”, for which the “total protein half-life in vivo” value under setting [1] worked out at 5.59 ± 0.23 h.

As to “MLELLFLLLPVAAAYGWYMGRRSAQQNKQDEANRLSRDYVAGVNFLLSNQQDKAVDLFLDMLKEDTGTVEAHLTLGNLFRSRGEVDRAIRIHQTLMESASLTYEQRLLAIQQLGRDYMAAGLYDRAEDMFNQLTDETDFRIGALQQLLQIYQATSEWQKAIDVAERLVKLGKDKQRVEIAHFYCELALQHMASDDLDRAMTLLKKGAAADKNSARVSIMMGRVFMAKGEYAKAVESLQRVISQDRELVSETLEMLQTCYQQLGKTAEWAEFLQRAVEENTGADAELMLADIIEARDGSEAAQVYITRQLQRHPTMRVFHKLMDYHLNEAEEGRAKESLMVLRDMVGEKVRSKPRYRCQKCGFTAYTLYWHCPSCRAWSTIKPIRGLDGL [P0AB58]”, the “total protein half-life in vivo” value reads like this: under setting [1], 5.9 ± 0.22 h; under setting [3], 6.34 ± 0.37 h; under setting [4], 6.43 ± 0.094 h; under setting [5], 6.039 ± 0.011 h; under setting [12], 3.1 ± 0.047 h; under setting [6], 5.91 ± 0.073 h. Further, the “total protein half-life in vivo” value reads like this: under setting [7], 12.2 ± 0.99 h; under setting [8], 6.101 ± 0.027 h; under setting [9], 15.2 ± 0.67 h; under setting [10], 5.63 ± 0.45 h; under setting [11], 12.5 ± 0.6 h.

Consider “MSTFKPLKTLTSRRQVLKAGLAALTLSGMSQAIAKDELLKTSNGHSKPKAKKSGGKRVVVLDPGHGGIDTGAIGRNGSKEKHVVLAIAKNVRSILRNHGIDARLTRSGDTFIPLYDRVEIAHKHGADLFMSIHADGFTNPKAAGASVFALSNRGASSAMAKYLSERENRADEVAGKKATDKDHLLQQVLFDLVQTDTIKNSLTLGSHILKKIKPVHKLHSRNTEQAAFVVLKSPSVPSVLVETSFITNPEEERLLGTAAFRQKIATAIAEGVISYFHWFDNQKAHSKKR”, for which the “total protein half-life in vivo” value reads like this: under setting [1], 5.02 ± 0.67 h; under setting [2], 5.75 ± 0.35 h; under setting [3], 4.89 ± 0.52 h; under setting [4], 4.977 ± 0.029 h; under setting [5], 4.41 ± 0.32 h; under setting [12], 2.23 ± 0.033 h. The “total protein half-life in vivo” value reads like this: under setting [6], 3.5509 ± 0.0011 h; under setting [7], 5 ± 0.2 h; under setting [8], 5.08 ± 0.94 h; under setting [9], 8.42 ± 0.29 h; under setting [10], 4.48 ± 0.47 h; under setting [11], 8.52 ± 0.41 h.

Regarding “MNEFSILCRVLGSLYYRQPQDPLLVPLFTLIREGKLAANWPLEQDELLTRLQKSCDMTQVSADYNALFIGDECAVPPYRSAWVEGATEAEVRAFLSERGMPLADTPADHIGTLLLAASWLEDQSTEDESEALETLFSEYLLPWCGAFLGKVEAHATTPFWRTMAPLTRDAISAMWDELEEDSEE”, the “total protein half-life in vivo” value runs as follows: under setting [1], 5.33 ± 0.97 h; under setting [2], 5.83 ± 1.6 h; under setting [3], 5.14 ± 0.17 h; under setting [4], 5.97 ± 1.5 h; under setting [5], 5.24 ± 0.65 h; under setting [12], 3.342 ± 0.021 h. Also, the “total protein half-life in vivo” value reads like this: under setting [6], 6.25 ± 0.39 h; under setting [8], 4.99 ± 0.71 h; under setting [9], 9.91 ± 0.97 h.

As to “MGLFDKLKSLVSDDKKDTGTIEIIAPLSGEIVNIEDVPDVVFAEKIVGDGIAIKPTGNKMVAPVDGTIGKIFETNHAFSIESDSGVELFVHFGIDTVELKGEGFKRIAEEGQRVKVGDTVIEFDLPLLEEKAKSTLTPVVISNMDEIKELIKLSGSVTVGETPVIRIKK”, the “total protein half-life in vivo” value is, setting by setting: under setting [1], 5.14 ± 0.12 h; under setting [2], 4.93 ± 0.37 h; under setting [3], 4.53 ± 0.15 h; under setting [4], 4.82 ± 0.3 h; under setting [5], 4.415 ± 0.029 h; under setting [12], 3.29 ± 0.1 h. Besides, the “total protein half-life in vivo” value came to 5.34 ± 0.22 h under setting [6]; 10.6 ± 1.7 h under setting [7]; 4.48 ± 0.28 h under setting [8]; 7.87 ± 0.1 h under setting [9]; 5.64 ± 0.17 h under setting [10]; 11.1 ± 0.48 h under setting [11].

These data come from the supplement of paper PMC11246515.
